Measurements taken from article PMC6579470, “A low-potential terminal oxidase associated with the iron-only nitrogenase from the nitrogen-fixing bacterium Azotobacter vinelandii” (The Journal of Biological Chemistry, 2019).

Experiments:
[1] = biological target: Anf3 from Azotobacter vinelandii (Azotobacter vinelandii); test: crystal structure; hanging-drop vapor diffusion, 25.5% PEG 4000, 170 mM ammonium sulfate, 16 °C; space group P2(1); the asymmetric unit contains a dimer
[2] = biological target: T1, Anf3 (Azotobacter vinelandii, UniProt C1DK98); test: X-ray crystal structure of the complex; type: binding; details: protein isolated with bound FAD; FAD stacks on heme; crystals at 16 °C, 25.5% PEG 4000, 170 mM ammonium sulfate
T1 construct: gene Avin_49040; full-length anf3, N-terminal His6 tag cut off with thrombin; E. coli KRX; intertwined homodimer; cofactors contact both monomers
T1 sequence (C1DK98 entry or part of it): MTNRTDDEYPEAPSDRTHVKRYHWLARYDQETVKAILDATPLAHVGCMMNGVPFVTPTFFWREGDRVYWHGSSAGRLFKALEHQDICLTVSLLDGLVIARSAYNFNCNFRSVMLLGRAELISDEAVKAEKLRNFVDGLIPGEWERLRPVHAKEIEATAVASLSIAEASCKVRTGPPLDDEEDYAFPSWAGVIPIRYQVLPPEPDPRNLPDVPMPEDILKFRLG

Row | Molecule | stoichiometry N [1] | X-ray crystal structure of the complex [2]
1 | Anf3 from Azotobacter vinelandii (enzyme) | 2 | 
2 | Cc1cc2nc3c(=O)[nH]c(=O)nc-3n(C[C@H](O)[C@H](O)[C@H](O)COP(=O)(O)OP(=O)(O)OC[C@H]3O[C@@H](n4cnc5c(N)ncnc54)[C@H](O)[C@@H]3O)c2cc1C [FAD] |  | Each monomer core is a split-barrel flavin-binding domain that binds an FAD
